Experimental data reported in patent publication US20220323445A1, “REDUCING IMMUNOGENICITY TO PEGLOTICASE” (Horizon Therapeutics Ireland DAC, priority 2020, published 2022).

Tested on: patients with uncontrolled gout
Experiment: Tender joint count (68-point) and swollen joint count (66-point), open-label study
Format: in vivo, human
Settings: mITT
Description: Tender and Swollen Joint Counts: Tender and swollen (excludes hip) joint counts were recorded at the Week −4 or week −6 (prior to the first dose of MTX) Visit during the MTX Run-in Period for the open-label and randomized studies, respectively; prior to pegloticase infusion at the Day 1 and Weeks 14, 24 and 36 Visits, or at the Day 1 and weeks 6, 14, 20, 24, 30, 36, and 44 visits during the Pegloticase+IMM Period for the open-label and randomized studies, respectively; and at the End of Pegloticase Infusions Visit (if applicable) and the Week 52/End of Study/Early Termination Visit and the Post Treatment 3 and 6 month Follow-up visits. Tender and swollen joint counts were assessed by physical examination.

[1] = Day 1 vs Methotrexate Baseline, n=14
[2] = Early Termination Visit vs Methotrexate Baseline, n=3
[3] = Early Termination Visit vs Pegloticase Baseline, n=3
[4] = End of Pegloticase Infusions Visit vs Methotrexate Baseline, n=2
[5] = End of Pegloticase Infusions Visit vs Pegloticase Baseline, n=2
[6] = End of Pegloticase Infusions Visit, n=2
[7] = Week 14 vs Methotrexate Baseline, n=14
[8] = Week 14 vs Pegloticase Baseline, n=14
[9] = Week 24 vs Methotrexate Baseline, n=11
[10] = Week 24 vs Pegloticase Baseline, n=11
[11] = Week 36 vs Methotrexate Baseline, n=9
[12] = Week 36 vs Pegloticase Baseline, n=9
[13] = Week 52/ET vs Methotrexate Baseline, n=3
[14] = Week 52/ET vs Pegloticase Baseline, n=3

B1: pegloticase (protein)
chain: TYKKNDEVEFVRTGYGKDMIKVLHIQRDGKYHSIKEVATTVQLTLSSKKDYLHGDNSDVIPTDTIKNTVNVLAKFKGIKSIETFAVTICEHFLSSFKHVIRAQVYVEEVPWKRFEKNGVKHVHAFIYTPTGTHFCEVEQIRNGPPVIHSGIKDLKVLKTTQSGFEGFIKDQFTTLPEVKDRCFATQVYCKWRYHQGRDVDFEATWDTVRSIVLQKFAGPYDKGEYSPSVQKTLYDIQVLTLGQVPEIEDMEISLPNIHYLNIDMSKMGLINKEEVLLPLDNPYGKITGTVKRKLSSRL
modifications: monomethoxy PEG conjugated; Krystexxa Sequence
notes: covalent conjugate of uricase produced by a genetically modified strain of Escherichia coli and monomethoxypoly (ethylene glycol)
Swollen Joint Count, Observed, Mean (SD) (Day 1, n=14): 5.3 (6.94)
Swollen Joint Count, Observed, Median (Day 1, n=14): 3.5
Tender Joint Count, Observed, Mean (SD) (Day 1, n=14): 9.6 (11.03)
Tender Joint Count, Observed, Median (Day 1, n=14): 7.0
Swollen Joint Count, Change from Baseline, Mean (SD) [1]: −0.7 (5.21)
Swollen Joint Count, Change from Baseline, Median [1]: 0.5
Tender Joint Count, Change from Baseline, Mean (SD) [1]: −1.9 (9.75)
Tender Joint Count, Change from Baseline, Median [1]: 0.0
Swollen Joint Count, Change from Baseline, Mean (SD) [2]: −1.0 (1.73)
Swollen Joint Count, Change from Baseline, Median [2]: 0.0
Tender Joint Count, Change from Baseline, Mean (SD) [2]: 0.7 (5.13)
Tender Joint Count, Change from Baseline, Median [2]: 2.0
Swollen Joint Count, Change from Baseline, Mean (SD) [3]: −3.3 (3.06)
Swollen Joint Count, Change from Baseline, Median [3]: −4.0
Tender Joint Count, Change from Baseline, Mean (SD) [3]: −2.7 (4.16)
Tender Joint Count, Change from Baseline, Median [3]: −4.0
Swollen Joint Count, Observed, Mean (SD) (Early Termination Visit, n=3): 0.7 (0.58)
Swollen Joint Count, Observed, Median (Early Termination Visit, n=3): 1.0
Tender Joint Count, Observed, Mean (SD) (Early Termination Visit, n=3): 7.7 (8.96)
Tender Joint Count, Observed, Median (Early Termination Visit, n=3): 3.0
Swollen Joint Count, Change from Baseline, Mean (SD) [4]: −7.0 (4.24)
Swollen Joint Count, Change from Baseline, Median [4]: −7.0
Tender Joint Count, Change from Baseline, Mean (SD) [4]: −12.0 (7.07)
Tender Joint Count, Change from Baseline, Median [4]: −12.0
Swollen Joint Count, Change from Baseline, Mean (SD) [5]: −2.0 (2.83)
Swollen Joint Count, Change from Baseline, Median [5]: −2.0
Tender Joint Count, Change from Baseline, Mean (SD) [5]: −3.0 (5.66)
Tender Joint Count, Change from Baseline, Median [5]: −3.0
Swollen Joint Count, Observed, Mean (SD) [6]: 0.0 (0.00)
Swollen Joint Count, Observed, Median [6]: 0.0
Tender Joint Count, Observed, Mean (SD) [6]: 2.0 (2.83)
Tender Joint Count, Observed, Median [6]: 2.0
Swollen Joint Count, Observed, Mean (SD) (Week 14, n=14): 1.7 (3.73)
Swollen Joint Count, Observed, Median (Week 14, n=14): 0.0
Tender Joint Count, Observed, Mean (SD) (Week 14, n=14): 4.6 (6.16)
Tender Joint Count, Observed, Median (Week 14, n=14): 2.0
Swollen Joint Count, Change from Baseline, Mean (SD) [7]: −4.3 (7.38)
Swollen Joint Count, Change from Baseline, Median [7]: −2.0
Tender Joint Count, Change from Baseline, Mean (SD) [7]: −7.0 (14.20)
Tender Joint Count, Change from Baseline, Median [7]: 0.0
Swollen Joint Count, Change from Baseline, Mean (SD) [8]: −3.6 (7.04)
Swollen Joint Count, Change from Baseline, Median [8]: −2.5
Tender Joint Count, Change from Baseline, Mean (SD) [8]: −5.1 (8.12)
Tender Joint Count, Change from Baseline, Median [8]: −5.0
Swollen Joint Count, Observed, Mean (SD) (Week 24, n=11): 0.5 (1.21)
Swollen Joint Count, Observed, Median (Week 24, n=11): 0.0
Tender Joint Count, Observed, Mean (SD) (Week 24, n=11): 2.6 (3.88)
Tender Joint Count, Observed, Median (Week 24, n=11): 0.0
Swollen Joint Count, Change from Baseline, Mean (SD) [9]: −6.6 (9.03)
Swollen Joint Count, Change from Baseline, Median [9]: −3.0
Tender Joint Count, Change from Baseline, Mean (SD) [9]: −10.2 (14.27)
Tender Joint Count, Change from Baseline, Median [9]: −4.0
Swollen Joint Count, Change from Baseline, Mean (SD) [10]: −5.1 (6.66)
Swollen Joint Count, Change from Baseline, Median [10]: −3.0
Tender Joint Count, Change from Baseline, Mean (SD) [10]: −6.8 (8.16)
Tender Joint Count, Change from Baseline, Median [10]: −4.0
Swollen Joint Count, Observed, Mean (SD) (Week 36, n=9): 0.1 (0.33)
Swollen Joint Count, Observed, Median (Week 36, n=9): 0.0
Tender Joint Count, Observed, Mean (SD) (Week 36, n=9): 2.1 (4.54)
Tender Joint Count, Observed, Median (Week 36, n=9): 0.0
Swollen Joint Count, Change from Baseline, Mean (SD) [11]: −7.8 (10.81)
Swollen Joint Count, Change from Baseline, Median [11]: −3.0
Tender Joint Count, Change from Baseline, Mean (SD) [11]: −12.3 (14.56)
Tender Joint Count, Change from Baseline, Median [11]: −7.0
Swollen Joint Count, Change from Baseline, Mean (SD) [12]: −6.2 (8.15)
Swollen Joint Count, Change from Baseline, Median [12]: −4.0
Tender Joint Count, Change from Baseline, Mean (SD) [12]: −7.8 (8.94)
Tender Joint Count, Change from Baseline, Median [12]: −4.0
Swollen Joint Count, Change from Baseline, Mean (SD) [13]: −21.0 (9.64)
Swollen Joint Count, Change from Baseline, Median [13]: −25.0
Tender Joint Count, Change from Baseline, Mean (SD) [13]: −24.0 (21.38)
Tender Joint Count, Change from Baseline, Median [13]: −17.0
Swollen Joint Count, Change from Baseline, Mean (SD) [14]: −13.0 (13.00)
Swollen Joint Count, Change from Baseline, Median [14]: −13.0
Tender Joint Count, Change from Baseline, Mean (SD) [14]: −16.0 (17.52)
Tender Joint Count, Change from Baseline, Median [14]: −15.0
Swollen Joint Count, Observed, Mean (SD) (Week 52/ET, n=3): 0.0 (0.00)
Swollen Joint Count, Observed, Median (Week 52/ET, n=3): 0.0
Tender Joint Count, Observed, Mean (SD) (Week 52/ET, n=3): 5.3 (3.21)
Tender Joint Count, Observed, Median (Week 52/ET, n=3): 4.0
